Reference: paper PMC11969024 (2025)

B1: peptide HD2 (from tick evasin EVA4) / CXCL14 (biotinylated, synthetic) (parent complex)
chain 1: EEDDYTAYAPLTCYFT
chain 2: SKCKCSRKGPKIRYSDVKKLEMKPKYPHCEEKMVIITTKSVSRYRGQEHCLHPKLQSTKRFIKWYNAWNEKRRVYEE

Variants of: B1
chain 1 EEDDYTAYAPLECYFT was tested, and the enrichment was -5.22 log2 (difference from the parental peptide). For chain 1 EEDDYTAYAPLNCYFT, the enrichment was -6.02 log2 (difference from the parental peptide). With chain 1 EEDDYTAYAPLSCYFT the enrichment was -7.83 log2 (difference from the parental peptide). In the case of chain 1 EEDDYTAYAPLICYFT, the enrichment is reported as 3.47 log2 (difference from the parental peptide). With chain 1 EEDDYTAYAPLRCYFT the enrichment was -7.34 log2 (difference from the parental peptide). For chain 1 EEDDYTAYAPLGCYFT, the enrichment was -8.56 log2 (difference from the parental peptide). For chain 1 EEDDYTAYAPLDCYFT, the enrichment was -6.91 log2 (difference from the parental peptide). chain 1 EEDDYTAYAPLMCYFT was tested, and the enrichment was -4.31 log2 (difference from the parental peptide). chain 1 EEDDYTAYAPLHCYFT was tested, and the enrichment was -1.2 log2 (difference from the parental peptide). For chain 1 EEDDYTAYAPLACYFT, the enrichment was -6.47 log2 (difference from the parental peptide). With chain 1 EEDDYTAYAPLTCYGT the enrichment was -8.03 log2 (difference from the parental peptide). For chain 1 EEDDYTAYAPLTCYMT, the enrichment was 0.3 log2 (difference from the parental peptide). In the case of chain 1 EEDDYTAYAPLTCYCT, the enrichment is reported as 1.14 log2 (difference from the parental peptide). For chain 1 EEDDYTAYAPLTCYWT, the enrichment was -6.44 log2 (difference from the parental peptide). For chain 1 EEDDYTAYAPLTCYYT, the enrichment was 3.35 log2 (difference from the parental peptide). In the case of chain 1 EEDDYTAYAPLTCYST, the enrichment is reported as -6.23 log2 (difference from the parental peptide). For chain 1 EEDDYTAYAPLTCYAT, the enrichment was -5.37 log2 (difference from the parental peptide). For chain 1 EEDDYTAYAPLTCYLT, the enrichment was -4.99 log2 (difference from the parental peptide). For chain 1 EEDDYTAYAPLTCYQT, the enrichment was 1.93 log2 (difference from the parental peptide). chain 1 EEDDYTAYAPLTCYNT was tested, and the enrichment was -3.99 log2 (difference from the parental peptide). chain 1 EEDDYTAPAPLTCYFT was tested, and the enrichment was -6.13 log2 (difference from the parental peptide). chain 1 EEDDYTANAPLTCYFT was tested, and the enrichment was -4.8 log2 (difference from the parental peptide). chain 1 EEDDYTAWAPLTCYFT was tested, and the enrichment was 0.649 log2 (difference from the parental peptide). In the case of chain 1 EEDDYTAMAPLTCYFT, the enrichment is reported as 1.74 log2 (difference from the parental peptide). chain 1 EEDDYTALAPLTCYFT was tested, and the enrichment was 0.358 log2 (difference from the parental peptide). chain 1 EEDDYTAIAPLTCYFT was tested, and the enrichment was -6.06 log2 (difference from the parental peptide). In the case of chain 1 EEDDYTAYQPLTCYFT, the enrichment is reported as 3.77 log2 (difference from the parental peptide). In the case of chain 1 EEDDYTAYHPLTCYFT, the enrichment is reported as -6.47 log2 (difference from the parental peptide). For chain 1 EEDDYTAYVPLTCYFT, the enrichment was -2.17 log2 (difference from the parental peptide). chain 1 EEDDYTAYKPLTCYFT was tested, and the enrichment was -4.89 log2 (difference from the parental peptide). In the case of chain 1 EEDDYTAYWPLTCYFT, the enrichment is reported as 1.99 log2 (difference from the parental peptide). With chain 1 EEDDYTAYGPLTCYFT the enrichment was -5.95 log2 (difference from the parental peptide). With chain 1 EEDDYTAYTPLTCYFT the enrichment was 2.11 log2 (difference from the parental peptide). chain 1 EEDDYTAYSPLTCYFT was tested, and the enrichment was -1.59 log2 (difference from the parental peptide). In the case of chain 1 EEDDYTAYDPLTCYFT, the enrichment is reported as -5.49 log2 (difference from the parental peptide). chain 1 EEDDYTAYEPLTCYFT was tested, and the enrichment was -4.09 log2 (difference from the parental peptide). In the case of chain 1 EEDDYTAYNPLTCYFT, the enrichment is reported as 4.16 log2 (difference from the parental peptide). In the case of chain 1 EEDDYTAYAPLTCAFT, the enrichment is reported as -0.328 log2 (difference from the parental peptide). For chain 1 EEDDYTAYAPLTCHFT, the enrichment was 2.79 log2 (difference from the parental peptide). chain 1 EEDDYTAYAPLTCCFT was tested, and the enrichment was -4.99 log2 (difference from the parental peptide). For chain 1 EEDDYTAYAPLTCVFT, the enrichment was -3.62 log2 (difference from the parental peptide). chain 1 EEDDYTAYAPLTCEFT was tested, and the enrichment was -0.269 log2 (difference from the parental peptide). For chain 1 EDDDYTAYAPLTCYFT, the enrichment was 0.377 log2 (difference from the parental peptide). For chain 1 ESDDYTAYAPLTCYFT, the enrichment was 0.196 log2 (difference from the parental peptide). chain 1 EVDDYTAYAPLTCYFT was tested, and the enrichment was -0.0348 log2 (difference from the parental peptide). chain 1 EMDDYTAYAPLTCYFT was tested, and the enrichment was -6.07 log2 (difference from the parental peptide). With chain 1 EEDEYTAYAPLTCYFT the enrichment was -4.2 log2 (difference from the parental peptide). chain 1 EEDPYTAYAPLTCYFT was tested, and the enrichment was 1.82 log2 (difference from the parental peptide). In the case of chain 1 EEDFYTAYAPLTCYFT, the enrichment is reported as -0.493 log2 (difference from the parental peptide). With chain 1 EEDMYTAYAPLTCYFT the enrichment was -6.89 log2 (difference from the parental peptide). In the case of chain 1 EEDIYTAYAPLTCYFT, the enrichment is reported as 0.635 log2 (difference from the parental peptide). In the case of chain 1 EEDDYMAYAPLTCYFT, the enrichment is reported as 1.47 log2 (difference from the parental peptide). In the case of chain 1 EEDDYYAYAPLTCYFT, the enrichment is reported as 3.46 log2 (difference from the parental peptide). chain 1 EEDDYEAYAPLTCYFT was tested, and the enrichment was 2.79 log2 (difference from the parental peptide). In the case of chain 1 EEDDYSAYAPLTCYFT, the enrichment is reported as -0.144 log2 (difference from the parental peptide). In the case of chain 1 EEDDYDAYAPLTCYFT, the enrichment is reported as 3.46 log2 (difference from the parental peptide). chain 1 EEDDYKAYAPLTCYFT was tested, and the enrichment was -5.43 log2 (difference from the parental peptide). chain 1 EEDDYFAYAPLTCYFT was tested, and the enrichment was 0.389 log2 (difference from the parental peptide). In the case of chain 1 EEDDYNAYAPLTCYFT, the enrichment is reported as 0.149 log2 (difference from the parental peptide). In the case of chain 1 EEDDYQAYAPLTCYFT, the enrichment is reported as 0.84 log2 (difference from the parental peptide). chain 1 EEDDYPAYAPLTCYFT was tested, and the enrichment was 1.85 log2 (difference from the parental peptide). With chain 1 EEDDYTAYAPVTCYFT the enrichment was -0.136 log2 (difference from the parental peptide). With chain 1 EEDDYTAYAPCTCYFT the enrichment was 0.549 log2 (difference from the parental peptide). In the case of chain 1 EEDDYTAYAPITCYFT, the enrichment is reported as 0.571 log2 (difference from the parental peptide). With chain 1 EEDDYTAYAPDTCYFT the enrichment was 0.52 log2 (difference from the parental peptide). chain 1 EEDDYTAYAPRTCYFT was tested, and the enrichment was -4.9 log2 (difference from the parental peptide). In the case of chain 1 EEDDYTAYAPNTCYFT, the enrichment is reported as -0.349 log2 (difference from the parental peptide). For chain 1 EEDDYTAYAPLTSYFT, the enrichment was -3.41 log2 (difference from the parental peptide). With chain 1 EEDDYTAYAPLTAYFT the enrichment was -6.89 log2 (difference from the parental peptide). For chain 1 EEDDYTAYAPLTTYFT, the enrichment was -5.9 log2 (difference from the parental peptide). chain 1 EEDDYTAYAPLTDYFT was tested, and the enrichment was -5.83 log2 (difference from the parental peptide). For chain 1 EEDDYTAYAPLTNYFT, the enrichment was -4.88 log2 (difference from the parental peptide). chain 1 EEDDYTAYAPLTGYFT was tested, and the enrichment was -8.69 log2 (difference from the parental peptide). With chain 1 EEDDYTAYAPLTPYFT the enrichment was -6.86 log2 (difference from the parental peptide). With chain 1 EEDDYTAYADLTCYFT the enrichment was -1.54 log2 (difference from the parental peptide). In the case of chain 1 EEDDYTAYALLTCYFT, the enrichment is reported as 0.0771 log2 (difference from the parental peptide). In the case of chain 1 EEDDYTAYAALTCYFT, the enrichment is reported as 2.1 log2 (difference from the parental peptide). In the case of chain 1 EEDDYTAYAFLTCYFT, the enrichment is reported as -2.31 log2 (difference from the parental peptide). In the case of chain 1 EEDDYTAYAVLTCYFT, the enrichment is reported as 0.331 log2 (difference from the parental peptide). For chain 1 EEDDYTAYAHLTCYFT, the enrichment was 0.862 log2 (difference from the parental peptide). In the case of chain 1 EEDDYTAYAELTCYFT, the enrichment is reported as 3.27 log2 (difference from the parental peptide). In the case of chain 1 EEDDYTAYAMLTCYFT, the enrichment is reported as 2.33 log2 (difference from the parental peptide). In the case of chain 1 EEDDYTNYAPLTCYFT, the enrichment is reported as 2.93 log2 (difference from the parental peptide). chain 1 EEDDYTTYAPLTCYFT was tested, and the enrichment was -5.45 log2 (difference from the parental peptide). In the case of chain 1 EEDDYTGYAPLTCYFT, the enrichment is reported as 1.97 log2 (difference from the parental peptide). With chain 1 EEDDYTRYAPLTCYFT the enrichment was 1.24 log2 (difference from the parental peptide). For chain 1 EEDDYTMYAPLTCYFT, the enrichment was -3.2 log2 (difference from the parental peptide). For chain 1 EEDDYTDYAPLTCYFT, the enrichment was 3.18 log2 (difference from the parental peptide). For chain 1 EEDDYTHYAPLTCYFT, the enrichment was 1.29 log2 (difference from the parental peptide). In the case of chain 1 EEDDYTQYAPLTCYFT, the enrichment is reported as -3.16 log2 (difference from the parental peptide). With chain 1 EEDDYTIYAPLTCYFT the enrichment was 0.79 log2 (difference from the parental peptide). With chain 1 EEDDYTSYAPLTCYFT the enrichment was 1 log2 (difference from the parental peptide). chain 1 EEDDFTAYAPLTCYFT was tested, and the enrichment was -5.86 log2 (difference from the parental peptide). chain 1 EEDDWTAYAPLTCYFT was tested, and the enrichment was -1.34 log2 (difference from the parental peptide). chain 1 EEDDLTAYAPLTCYFT was tested, and the enrichment was -2.83 log2 (difference from the parental peptide). For chain 1 EEDDYTAYAPLTCYFH, the enrichment was 3.56 log2 (difference from the parental peptide). For chain 1 EEDDYTAYAPLTCYFC, the enrichment was 1.19 log2 (difference from the parental peptide). In the case of chain 1 EEDDYTAYAPLTCYFG, the enrichment is reported as 2.47 log2 (difference from the parental peptide). In the case of chain 1 EEDDYTAYAPLTCYFI, the enrichment is reported as 0.982 log2 (difference from the parental peptide). chain 1 EEDDYTAYAPLTCYFQ was tested, and the enrichment was -5.09 log2 (difference from the parental peptide). For chain 1 EEDDYTAYAPLTCYFW, the enrichment was 2.14 log2 (difference from the parental peptide). With chain 1 EEDDYTAYAPLTCYFL the enrichment was 1.24 log2 (difference from the parental peptide). chain 1 EEDDYTAYAPLTCYFS was tested, and the enrichment was -5.85 log2 (difference from the parental peptide). chain 1 EEYDYTAYAPLTCYFT was tested, and the enrichment was 0.926 log2 (difference from the parental peptide). In the case of chain 1 EEIDYTAYAPLTCYFT, the enrichment is reported as -8.12 log2 (difference from the parental peptide). In the case of chain 1 EEGDYTAYAPLTCYFT, the enrichment is reported as 1.82 log2 (difference from the parental peptide). With chain 1 EEFDYTAYAPLTCYFT the enrichment was -3.03 log2 (difference from the parental peptide). In the case of chain 1 EETDYTAYAPLTCYFT, the enrichment is reported as -5.87 log2 (difference from the parental peptide). For chain 1 SEDDYTAYAPLTCYFT, the enrichment was -6.03 log2 (difference from the parental peptide). In the case of chain 1 YEDDYTAYAPLTCYFT, the enrichment is reported as 0.958 log2 (difference from the parental peptide). With chain 1 QEDDYTAYAPLTCYFT the enrichment was -2.86 log2 (difference from the parental peptide). For chain 1 TEDDYTAYAPLTCYFT, the enrichment was 0.267 log2 (difference from the parental peptide).
